Test results: PMC3326311 (Nucleic Acids Research, 2011)
Changes are numbered by the printed parent chain. Names may count otherwise.

B1: HerA helicase (Sulfolobus solfataricus), untagged (enzyme, Sulfolobus solfataricus P2, UniProt Q97WG8 1-500, looked up)
chain: MIIGYVIGQATTQEALILAERPVRLGTYVVLEYDNVKALGLITNVTRGSPMLDDNMNDIEIVQRLKQFNNSIPVYTKAKVKMLCDMNNHFLMPDIPPFAGTPAREAEDEELKSIYSQDGQIRIGSLIGKNVEVKLNINSFARHLAILAATGSGKSNTVAVLSQRISELGGSVLIFDYHGEYYDSDIKNLNRIEPKLNPLYMTPREFSTLLEIRENAIIQYRILRRAFIKVTNGIREKLKEGQIPFSTLNSQFYELMKDELETQGNSDKKSSAKDEVLNKFEEFMDRYSNVIDLTSSDIIEKVKRGKVNVVSLTQLDEDSMDAVVSHYLRRILDSRKDFKRSKNSGLKFPIIAVIEEAHVFLSKNENTLTKYWASRIAREGRKFGVGLTIVSQRPKGLDENILSQMTNKIILKIIEPTDKKYILESSDNLSEDLAEQLSSLDVGEAIIIGKIVKLPAVVKIDMFEGKLLGSDPDMIGEWKKVEESEKIAKGFADFGTEIGD
B2: NurA nuclease (Sulfolobus solfataricus), untagged (enzyme, Sulfolobus solfataricus P2)
chain: MIRKIYDKLVESHNEIKNQIYNIANYLKQEIQDKVNEYWNEYVINHEQSETCKFVAIDGGSFGRPMRIGIVYAVGAESVIGDNKGVKTLSEDGQIGIFKPGNDAQERISLLMEALELSLALRDGSKGDYILMDGSLSKKIGNKVDIQQFSDEELKLIRNVDLNGIISIKDERKMRDLLMLLNQFLVSKIIEEYDGNVLWISKVSRGRDLFGTDYPDITVLELFTEKRGFSKLIIKNIDIEKISEIPEIEVLRKMEYTTFYTRLDNGKRVIRVDIVGRVDEKIVKEIMDRLSGVSIKGYPFPLLKAHMDVRFSAMDREKIIKLVGSKLHKDIEWWPSQFY
B3: NurA F300E (enzyme, Sulfolobus solfataricus P2)
chain: B2 chain with F300E
B4: NurA I295E (enzyme, Sulfolobus solfataricus P2)
chain: B2 chain with I295E
B5: NurA K202A (enzyme, Sulfolobus solfataricus P2)
chain: B2 chain with K202A
B6: NurA I295E/F300E double mutant (enzyme, Sulfolobus solfataricus P2)
chain: B2 chain with I295E, F300E

Tests used:
SEC = target: the molecule itself; test: SEC
crystal structure = target: the molecule itself; test: crystal structure
[1] = target: B1; test: SEC

Binder | stoichiometry N (SEC) | further results
B1 | 6 | –
B2 | – | stoichiometry N (crystal structure): 2
B3 | 2 | –
B4 | 2 | –
B5 | – | binding result [1]: binds
B6 | 2 | –
